Test results from US20120172285A1 (Dana-Farber, published 2012).
Bridges are numbered along the chain shown (N, C = ends). Where no end group is shown, it is not given here. [ ]: non-standard residue; d: D form. The star is where a group is joined. FITC = O=C1OC2(c3ccc(O)cc3Oc3cc(O)ccc32)c2ccc(NC(=S)*)cc21; S5 = C=CCCC[C@](C)(N)C(=O)O; Nle = CCCC[C@H](N)C(=O)O

How the values were obtained:
[1] = biological target: recombinant human MCL-1ΔNΔC (amino acids 172-320) (human) (UniProt Q07820); experiment: fluorescence polarization (FPA), FITC-SAHB, dilution series of MCL-1ΔNΔC [top panel]
recombinant BCL-wΔC [2] = biological target: recombinant BCL-wΔC (UniProt Q92843); experiment: fluorescence polarization (FPA), FITC-SAHB with recombinant anti-apoptotic protein [lower table]
[3] = biological target: recombinant human MCL-1ΔNΔC (amino acids 172-320) (human) (UniProt Q07820); experiment: as above
recombinant BCL-XLΔC [4] = biological target: recombinant BCL-XLΔC (UniProt Q07817); experiment: as above
recombinant BFL-1/A1ΔC [5] = biological target: recombinant BFL-1/A1ΔC (UniProt Q16548); experiment: as above
[6] = biological target: recombinant human MCL-1ΔNΔC (amino acids 172-320) (human) (UniProt Q07820); experiment: FPA, FITC-SAHB against MCL-1ΔNΔC
recombinant BFL-1/A1ΔC [7] = biological target: recombinant BFL-1/A1ΔC (UniProt Q16548); experiment: fluorescence polarization (FPA), FITC-SAHB with recombinant protein; axis Concentration [log(pM)] [left panel]
recombinant BCL-wΔC [8] = biological target: recombinant BCL-wΔC (UniProt Q92843); experiment: fluorescence polarization (FPA), FITC-SAHB with recombinant anti-apoptotic protein [upper table]
[9] = biological target: recombinant human MCL-1ΔNΔC (amino acids 172-320) (human) (UniProt Q07820); experiment: as above
recombinant BCL-XLΔC [10] = biological target: recombinant BCL-XLΔC (UniProt Q07817); experiment: as above
recombinant BFL-1/A1ΔC [11] = biological target: recombinant BFL-1/A1ΔC (UniProt Q16548); experiment: as above
[12] = biological target: recombinant human MCL-1ΔNΔC (amino acids 172-320) (human) (UniProt Q07820); experiment: fluorescence polarization (FPA), FITC-NOXA SAHBB, dilution series of the protein [left graph]
[13] = biological target: T1, recombinant human MCL-1ΔNΔC (amino acids 172-320) (human, UniProt Q07820 172-320); experiment: FPA, FITC-SAHB against MCL-1ΔNΔC
T1 construct: also called rMCL-1; MCL-1NC
Method: (§1) For direct binding experiments, dissociation constants (KD) were calculated by nonlinear regression analysis of dose-response curves using Prism software (Graphpad). For competition experiments, Ki values were determined by nonlinear regression analysis of dose-response curves using a one-site competition model.
The native alpha-helical structure of BH3 domains was reinforced by incorporating non-natural amino acids containing olefin tethers at the (i, i+4) positions of the non-interacting face, followed by ruthenium catalyzed olefin metathesis to yield a panel of stapled BH3 domains (FIG. 7).

[14] = biological target: T1, recombinant human MCL-1ΔNΔC (amino …); experiment: fluorescence polarization (FPA), FITC-SAHB with recombinant anti-apoptotic protein [lower table]
Method: as §1
(§2) To measure the binding activity of SAHBs for MCL-1, fluorescence polarization binding assays were performed (FIG. 8). To generate a stable MCL-1 protein suitable for such binding studies (i.e., the published full-length and carboxy-terminus deleted forms of recombinant MCL-1 degrade rapidly, rendering it difficult to maintain a homogenous solution of pure MCL-1 protein), a recombinant form of MCL-1 (rMCL-1) was produced that lacked its amino- and carboxy-terminus, “MCL-1ΔNΔC”, but retained the critical BCL-2 homology domains and adjoining protein sequences that give rise to the BH3-binding cleft (SEQ ID NO: 72). The pGEX-4T vector was used to produce the GST-fusion protein of MCL-1ΔNΔC and purification was achieved by glutathione sepharose chromatography, affinity tag cleavage with thrombin at room temperature overnight, followed by size exclusion chromatography. Serial dilutions of MCL-1ΔNΔC in 50 mM Tris pH 8, 150 mM NaCl were incubated with a fixed concentration of FITC-derivatized SAHB (10-50 nM) until equilibrium was reached. Fluorescence polarization was measured on a BMG POLARstar Optima or Spectramax and dissociation constants determined by nonlinear regression analysis using Prism software 4.0 (Graphpad) (FIG. 8).

[15] = biological target: T1, recombinant human MCL-1ΔNΔC (amino …); experiment: fluorescence polarization (FPA), FITC-SAHB, dilution series of MCL-1ΔNΔC [middle panel]
Method: as §1, §2

[16] = biological target: T1, recombinant human MCL-1ΔNΔC (amino …); experiment: fluorescence polarization (FPA), FITC-SAHB, dilution series of MCL-1ΔNΔC [top panel]
Method: as §1
(§3) To measure the binding activity of SAHBs for MCL-1, fluorescence polarization binding assays were performed (FIG. 8). To generate a stable MCL-1 protein suitable for such binding studies (i.e., the published full-length and carboxy-terminus deleted forms of recombinant MCL-1 degrade rapidly, rendering it difficult to maintain a homogenous solution of pure MCL-1 protein), a recombinant form of MCL-1 (rMCL-1) was produced that lacked its amino- and carboxy-terminus, “MCL-1ΔNΔC”, but retained the critical BCL-2 homology domains and adjoining protein sequences that give rise to the BH3-binding cleft (SEQ ID NO: 72). The pGEX-4T vector was used to produce the GST-fusion protein of MCL-1ΔNΔC and purification was achieved by glutathione sepharose chromatography, affinity tag cleavage with thrombin at room temperature overnight, followed by size exclusion chromatography. […] Fluorescence polarization was measured on a BMG POLARstar Optima or Spectramax and dissociation constants determined by nonlinear regression analysis using Prism software 4.0 (Graphpad) (FIG. 8).

[17] = biological target: T1, recombinant human MCL-1ΔNΔC (amino …); experiment: competition FPA, FITC-BAK SAHB and MCL-1ΔNΔC with MCL-1 SAHBs as competitors
Method: (§4) Briefly, FITC-SAHB (50 nM) was added to serial dilutions of FPLC-purified recombinant protein in binding buffer (50 mM Tris, 100 mM NaCl, pH 8.0). […] Multiwell plates were incubated in the dark at room temperature until equilibrium was reached and fluorescence polarization (mP units) was measured by microplate reader (SpectraMax, Molecular Devices). For direct binding experiments, dissociation constants (KD) were calculated by nonlinear regression analysis of dose-response curves using Prism software (Graphpad). For competition experiments, Ki values were determined by nonlinear regression analysis of dose-response curves using a one-site competition model.
(§5) FP (mP units) was measured at equilibrium by microplate reader (e.g., Spectramax) and Kᵢ values calculated by nonlinear regression analysis of dose-response curves using Prism software (Graphpad).

[18] = biological target: T1, recombinant human MCL-1ΔNΔC (amino …); experiment: fluorescence polarization (FPA), FITC-SAHB with recombinant protein; axis Concentration [log(pM)] [right panel]
[19] = biological target: T1, recombinant human MCL-1ΔNΔC (amino …); experiment: competition FPA: dilution series of acetylated MCL-1 SAHB against FITC-BAK SAHB on MCL-1ΔNΔC
Method: as §4, §5

[20] = biological target: T1, recombinant human MCL-1ΔNΔC (amino …); experiment: FPA
Method: as §1
The alanine scan was supplemented with glutamate mutagenesis of alanine and glycine residues.

[21] = biological target: T1, recombinant human MCL-1ΔNΔC (amino …); experiment: fluorescence polarization (FPA), FITC-SAHB with recombinant anti-apoptotic protein [upper table]
Method: as §1, §3

Chain of recombinant BFL-1/A1ΔC (Q16548 1-153, stated change not applied): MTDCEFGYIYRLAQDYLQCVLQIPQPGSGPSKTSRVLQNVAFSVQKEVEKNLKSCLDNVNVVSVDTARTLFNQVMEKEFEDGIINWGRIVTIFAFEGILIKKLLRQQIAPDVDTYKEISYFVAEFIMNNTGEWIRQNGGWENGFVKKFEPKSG
T1 sequence (Q07820 172-320 limits assumed, stated change not applied): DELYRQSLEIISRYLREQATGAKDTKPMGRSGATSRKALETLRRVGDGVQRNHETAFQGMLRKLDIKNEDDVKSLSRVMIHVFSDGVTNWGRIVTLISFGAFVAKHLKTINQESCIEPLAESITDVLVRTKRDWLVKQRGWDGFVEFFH
Chain of recombinant human MCL-1ΔNΔC (amino acids 172-320) (human) (Q07820 172-320 limits assumed, stated change not applied): as above
Chain of recombinant BCL-wΔC (Q92843 1-164, stated change not applied): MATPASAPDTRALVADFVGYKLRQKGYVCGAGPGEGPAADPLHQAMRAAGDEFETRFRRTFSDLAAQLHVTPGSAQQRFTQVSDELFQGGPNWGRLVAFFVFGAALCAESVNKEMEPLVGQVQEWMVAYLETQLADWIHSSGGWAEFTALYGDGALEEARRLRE
Chain of recombinant BCL-XLΔC (Q07817 1-212, stated change not applied): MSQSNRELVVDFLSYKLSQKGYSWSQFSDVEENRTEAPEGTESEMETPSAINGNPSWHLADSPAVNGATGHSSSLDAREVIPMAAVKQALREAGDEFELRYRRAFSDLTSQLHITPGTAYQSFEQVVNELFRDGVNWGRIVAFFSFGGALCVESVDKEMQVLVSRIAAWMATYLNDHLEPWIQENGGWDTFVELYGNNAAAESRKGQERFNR

Kd (recombinant BCL-wΔC [2]) | Kd (recombinant BCL-XLΔC [4]) | Kd (recombinant BFL-1/A1ΔC [5]) | Kd [13] | Kd [14] | Molecule | other results
2 nM | – | 18 nM | – | – | BIM SAHB (BIM SAHBA) (peptide) | EC50 (read off the curve) (recombinant BFL-1/A1ΔC [7]): 50 nM
18 nM | 9 nM | 34 nM | < 50 nM | 14 nM | {FITC}-QWAREIGAQLR[S5][Nle]AD[S5]LNAQY (staple 12-16, domain: BH3) [PUMA SAHB] | Kd [16]: 14 nM
54 nM | 28 nM | 95 nM | < 50 nM | 50 nM | {FITC}-DIIRNIARHLA[S5]VGD[S5][Nle]DRSIRR (staple 12-16, domain: BH3) [BID SAHB] | Kd [16]: 50 nM
17 nM | 15 nM | 92 nM | < 50 nM | 7 nM | {FITC}-QVGRQLA[S5]IGD[S5]INRRYD (staple 8-12, also called FITC-BAK SAHB; BAK BH3 helix) [BAK SAHB] | Kd [15]: 7 nM; IC50 [17]: 270 nM

Second part, the molecule before the results:

Molecule | Kd (recombinant BCL-wΔC [2]) | Kd (recombinant BCL-XLΔC [4]) | Kd (recombinant BFL-1/A1ΔC [5]) | Kd [13] | Kd [14] | other results
NOXA SAHBA (stapled NOXA BH3 helix) (from UniProt Q13794) (peptide) | > 1000 nM | > 1000 nM | 416 nM | – | – | Kd [1]: 22 nM; Kd [3]: 22 nM; Kd [6]: < 50 nM
NOXA SAHBB (from UniProt Q13794 19-43) (peptide) | – | – | – | – | – | Kd (recombinant BCL-wΔC [8]): > 1000 nM; Kd [9]: 109 nM; Kd (recombinant BCL-XLΔC [10]): > 1000 nM; Kd (recombinant BFL-1/A1ΔC [11]): > 1000 nM; Kd [12]: 110 nM
{FITC}-ASTKKLSESLK[S5]IGD[S5]LDSN (staple 12-16, domain: BH3) [BAX SAHB] | 24 nM | 15 nM | 28 nM | < 50 nM | 101 nM | Kd [15]: 101 nM
{FITC}-IWI[S5]QEL[S5]RFGDKFNAYYAR (staple 4-8) [BIM SAHBD with Ile65 to Phe and Glu68 to Lys (MCL-1-specificity tailored BIM SAHB)] | – | – | – | – | – | EC50 (read off the curve) [18]: ~10 nM
KALETLR[S5]VGD[S5]VQRNHETAF (staple 8-12; also: N-terminal FITC or acetyl depending on assay, domain: BH3; also called FITC-MCL-1 SAHBA) [MCL-1 SAHBA (stapled MCL-1 BH3 helix, parental)] | – | – | – | < 50 nM | – | Ki [19]: 3100 nM
{FITC}-KALETLR[S5]VGD[S5]FQRNHETAF (peptide, UniProt Q07820 208-228, looked up, staple 8-12, domain: BH3; also called V220F point mutation in MCL-1 SAHB) [MCL-1 SAHBA V220F] | – | – | – | – | – | Kd [20]: 191 nM
{FITC}-RLAEVSAVLL[S5]LGD[S5]LE[Nle]IR (staple 11-15) [BOK SAHB] | – | – | – | < 50 nM | – | Kd [21]: 115 nM; Kd [15]: 115 nM; Kd (recombinant BCL-wΔC [8]): 416 nM; Kd (recombinant BCL-XLΔC [10]): 316 nM; Kd (recombinant BFL-1/A1ΔC [11]): > 1000 nM
